Assay results: patent US20140271648A1 (Janssen / Centocor, published 2014)

T1: human IFNαD (human, UniProt A0A087WWS6 25-190)
T1 construct: also called Alpha D (alpha 1); IFNα1
T1 chain: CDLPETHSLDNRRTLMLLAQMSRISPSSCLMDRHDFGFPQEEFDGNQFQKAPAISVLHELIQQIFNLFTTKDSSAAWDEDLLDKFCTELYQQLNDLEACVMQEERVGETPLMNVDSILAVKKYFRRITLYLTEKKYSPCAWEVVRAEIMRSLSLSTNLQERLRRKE

T2: human IFNαF (human, UniProt P01568 24-189)
T2 construct: also called Alpha F (alpha 21); IFNα21
T2 chain: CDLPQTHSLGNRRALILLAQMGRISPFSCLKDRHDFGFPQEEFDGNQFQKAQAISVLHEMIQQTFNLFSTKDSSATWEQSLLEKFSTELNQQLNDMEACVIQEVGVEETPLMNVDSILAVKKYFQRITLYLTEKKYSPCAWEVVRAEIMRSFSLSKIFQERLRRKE


Assays:
[1] = molecular target: T3, human IFNαWA (human, UniProt P05015 24-189); assay: SPR (ProteOn); mAb captured on anti-human Fc, IFN as analyte
T3 construct: also called Alpha WA (alpha 16)
Description: (§1) Binding affinities of the antibodies were performed using SPR technology with ProteOn (Bio-Rad Hercules, Calif.). Goat anti-human Fc antibodies (manufacture) were amine-coupled to GLC chips (Bio-Rad Hercules, Calif.) using standard NHS/EDC chemistry as manufacture recommended. The anti-IFN mAbs were then loaded on the antibody coupled chip for 2 minutes at the flow rate of 30 μl/min. […] The chips were generated with 100 mM phosphoric acid in each direction between running different antigens. Data analysis was performed using ProteOn manager (Bio-Rad Hercules, Calif.). The sensorgrams were grouped by mAbs. After applying alignment and reference correction (using either interspot or blank channel referencing), the SPR data were fit globally to Langmuir model for kinetic rate constants (KD=koff/kₒₙ, where KD=equilibrium dissociation constant, kₒₙ=association rate constant, and koff=dissociation rate constant).

[2] = molecular target: T4, human IFNαC (human, UniProt P01566 24-189); assay: as above
T4 construct: also called Alpha C (alpha 10); IFNα10
T4 sequence (P01566 24-189): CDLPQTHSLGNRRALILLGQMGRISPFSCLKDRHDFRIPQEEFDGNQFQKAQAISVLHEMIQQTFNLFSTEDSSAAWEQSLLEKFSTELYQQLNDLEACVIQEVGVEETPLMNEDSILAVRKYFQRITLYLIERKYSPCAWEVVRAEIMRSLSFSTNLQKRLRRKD
Description: as §1

[3] = molecular target: T1, human IFNαD; assay: as above
Description: as §1

[4] = molecular target: T5, human IFNαJ1 (human, UniProt P01567 24-189); assay: as above
T5 construct: also called Alpha J1 (alpha 7); IFNα7
T5 sequence (P01567 24-189): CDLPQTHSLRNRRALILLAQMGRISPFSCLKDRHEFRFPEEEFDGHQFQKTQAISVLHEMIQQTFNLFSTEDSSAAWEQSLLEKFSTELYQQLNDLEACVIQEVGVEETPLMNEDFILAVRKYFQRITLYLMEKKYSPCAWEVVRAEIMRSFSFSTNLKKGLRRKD
Description: as §1

[5] = molecular target: T6, human IFNω (human, UniProt P05000 24-195); assay: as above
T6 construct: also called interferon omega; recombinant human IFNω
T6 sequence (P05000 24-195 limits assumed): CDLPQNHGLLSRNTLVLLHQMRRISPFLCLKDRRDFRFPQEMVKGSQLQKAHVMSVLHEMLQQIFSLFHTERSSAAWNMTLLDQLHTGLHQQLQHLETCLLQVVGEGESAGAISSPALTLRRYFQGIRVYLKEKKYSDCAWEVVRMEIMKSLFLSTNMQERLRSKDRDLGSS
Description: as §1

[6] = molecular target: T7, human IFNαK (human, UniProt P05013 24-189); assay: as above
T7 construct: also called Alpha K (alpha 6); IFNα6
T7 sequence (P05013 24-189): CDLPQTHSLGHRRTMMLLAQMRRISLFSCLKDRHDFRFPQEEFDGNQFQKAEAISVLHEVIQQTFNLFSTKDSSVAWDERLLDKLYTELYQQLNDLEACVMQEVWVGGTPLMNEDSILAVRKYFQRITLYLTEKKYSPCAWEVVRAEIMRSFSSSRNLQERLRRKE
Description: as §1

[7] = molecular target: T2, human IFNαF; assay: as above
Description: as §1

[8] = molecular target: T8, human IFNαH2 (human, UniProt P01570 24-189); assay: as above
T8 construct: also called Alpha H2 (alpha 14); IFNα14
T8 sequence (P01570 24-189): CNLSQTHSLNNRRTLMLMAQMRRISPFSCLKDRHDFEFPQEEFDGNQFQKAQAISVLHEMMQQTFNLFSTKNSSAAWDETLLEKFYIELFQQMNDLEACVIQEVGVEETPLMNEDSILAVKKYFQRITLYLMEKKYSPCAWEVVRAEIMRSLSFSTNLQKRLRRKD
Description: as §1

[9] = molecular target: T9, human IFNαG (human, UniProt P01569 24-189); assay: as above
T9 construct: also called Alpha G (alpha 5); IFNα5
T9 sequence (P01569 24-189): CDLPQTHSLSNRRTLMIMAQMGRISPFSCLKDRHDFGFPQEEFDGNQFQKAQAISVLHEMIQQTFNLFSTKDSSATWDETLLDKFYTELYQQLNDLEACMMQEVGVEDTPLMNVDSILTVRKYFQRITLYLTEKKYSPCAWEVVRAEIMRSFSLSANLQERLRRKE
Description: as §1

[10] = molecular target: T3, human IFNαWA; assay: cell-based or functional assay
[11] = molecular target: T4, human IFNαC; assay: cell-based or functional assay
[12] = molecular target: T5, human IFNαJ1; assay: cell-based or functional assay
[13] = molecular target: T6, human IFNω; assay: cell-based or functional assay
[14] = molecular target: T7, human IFNαK; assay: cell-based or functional assay
[15] = molecular target: T2, human IFNαF; assay: cell-based or functional assay
[16] = molecular target: T8, human IFNαH2; assay: cell-based or functional assay
[17] = molecular target: T9, human IFNαG; assay: cell-based or functional assay
[18] = molecular target: T10, human IFNω T80E variant (human, UniProt P05000 24-195); assay: complex formed, purified by size exclusion and co-crystallized
T10 construct: Expressed in HEK293F cells; used for the crystal structures; In the Fab357 crystal only residues R22-P39 and L118-L154 were seen (proteolytic cleavage during crystallization); also called IFN-omega (T80E)
T10 sequence (P05000 24-195 T103E limits assumed): as the sequence (P05000 24-195 limits assumed) above, with T80E counted along it

[19] = molecular target: T11, human IFNβ (human, UniProt P01574 22-187); assay: SPR (ProteOn); mAb captured on anti-human Fc, IFN as analyte
T11 construct: also called interferon-β
T11 sequence (P01574 22-187 limits assumed): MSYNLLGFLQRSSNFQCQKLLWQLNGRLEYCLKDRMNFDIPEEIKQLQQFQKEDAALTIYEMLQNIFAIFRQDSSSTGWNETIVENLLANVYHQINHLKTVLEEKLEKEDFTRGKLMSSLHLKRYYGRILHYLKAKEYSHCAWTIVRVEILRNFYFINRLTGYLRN
Description: as §1

Row | Binder | Kd [1] [nM] | Kd [2] [nM] | binding result [3] | Kd [4] [nM] | Kd [5] [nM] | Kd [7] [nM] | Kd [8] [nM] | Kd [9] [nM] | IC50, ISRE reporter gene assay [11] [nM] | IC50, ISRE reporter gene assay [12] [nM] | IC50, ISRE reporter gene assay [13] [nM] | IC50, ISRE reporter gene assay [15] [nM] | IC50, ISRE reporter gene assay [16] [nM] | IC50, ISRE reporter gene assay [17] [nM] | binding result [18] | binding result [19] | further results
1 | IFWM43 (antibody, V domains shown, Fab from a pIX phage display library, converted to human IgG1 mAb; also called anti IFNα/ω mAb M43) VH: QVQLVQSGAEVKKPGSSVKVSCKASGGTFSSYAISWVRQAPGQGLEWMGGIIPIFGTANYAQKFQGRVTITADESTSTAYMELSSLRSEDTAVYYCARDSWGSYYAALDYWGQGTLVTVSS VL: not shown | 0.6 | 0.4 | no binding (tested: antigen up to 100 nM) | 0.4 | 0.3 | 0.9 | 0.6 | 0.6 | 14.9 | 1 | 18.5 | 3.7 | 51 | 5.3 | – | – | Kd [6]: 0.3 nM; IC50, ISRE reporter gene assay [10]: 9.2 nM; IC50, ISRE reporter gene assay [14]: 10.4 nM
2 | FabM43 (Fab, V domains shown, His-tagged Fab, IgG1/κ isotype, expressed in HEK293F cells; also called Fab of IFWM43; His-tagged FabM43) VH: QVQLVQSGAEVKKPGSSVKVSCKASGGTFSSYAISWVRQAPGQGLEWMGGIIPIFGTANYAQKFQGRVTITADESTSTAYMELSSLRSEDTAVYYCARDSWGSYYAALDYWGQGTLVTVSS VL: not shown | – | – | – | – | – | – | – | – | – | – | – | – | – | – | binds | – | –
3 | IFWM88 (antibody, V domains shown, Fab from a pIX phage display library, converted to human IgG1 mAb) VH: QVQLVQSGAEVKKPGSSVKVSCKASGGTFSSYAISWVRQAPGQGLEWMGGIIPIFGTANYAQKFQGRVTITADESTSTAYMELSSLRSEDTAVYYCARHLEYAFPDKFDYWGQGTLVTVSS VL: not shown | 97.3 | 3.2 | no binding (tested: antigen up to 100 nM) | 4.5 | 53 | 1 | 5.5 | 0.8 | 136 | 21.9 | – | 24.6 | – | 23.4 | – | no binding (tested: antigen up to 100 nM) | –
4 | C2595 (antibody, V domains shown) VH: EVQLQQSGGDLVKPGGSLKLSCAASGFTFSSYGMSWVRQTPDKRLDWVSIITSGGSYTYYPDSVKGRFTISRDNAKNTLYLQMSSLKSEDTAMYYCARHAEGGGNYDYAMDYWGQGTSVTVSS VL: DIVMTQAAFSNPVTLGTSASISCRSSKSLLHSNGITYLYWYLQKPGQSPQLLIYQMSNLASGVPDRFSSSGSGIDFTLRISRVEAEDVGAYYCAQNLELPFTFGSGTKLEIK | – | – | – | – | – | – | – | – | 1.5 | 1.4 | 0.9 | 2.6 | 20.3 | 2.6 | – | – | –
5 | Fab357 (Fab, V domains shown, also called Fab of C2595) VH: EVQLQQSGGDLVKPGGSLKLSCAASGFTFSSYGMSWVRQTPDKRLDWVSIITSGGSYTYYPDSVKGRFTISRDNAKNTLYLQMSSLKSEDTAMYYCARHAEGGGNYDYAMDYWGQGTSVTVSS VL: DIVMTQAAFSNPVTLGTSASISCRSSKSLLHSNGITYLYWYLQKPGQSPQLLIYQMSNLASGVPDRFSSSGSGIDFTLRISRVEAEDVGAYYCAQNLELPFTFGSGTKLEIK | – | – | – | – | – | – | – | – | – | – | – | – | – | – | binds | – | –
6 | M3239 (antibody, human IgG1, V domains shown) VH: EVQLQQSGGDLVKPGGSLKLSCAASGFTFSSYGMSWVRQTPDKRLDWVSIITSGGSYTYYPDSVKGRFTISRDNAKNTLYLQMSSLKSEDTAMYYCARHAEGGGNYDYAMDYWGQGTSVTVSS VL: DIVMTQAAFSNPVTLGTSASISCRSSKSLLHSNGITYLYWYLQKPGQSPQLLIYQMSNLASGVPDRFSSSGSGIDFTLRISRVEAEDVGAYYCAQNLELPFTFGSGTKLEIK | – | 1.3 | no binding (tested: antigen up to 100 nM) | 4.3 | 4.5 | 15.1 | 61.6 | 10.3 | – | – | – | – | – | – | – | no binding (tested: antigen up to 100 nM) | binding result [1]: no binding (tested: antigen up to 100 nM); binding result [6]: no binding (tested: antigen up to 100 nM)
